# Molecular target: synthetic HA 11 A-beta (1-40) peptide (human)
# Experiment: sandwich ELISA, anti-HA 11 capture, detection with position 1 or position 40 antibodies
substance,measurement,value
mAB anti-HA 11 (BABCO) (antibody),peptide concentration at which the ELISA signal approached saturation,10 ng/mL

# Reference: patent US20030091983A1
